Measured values from PMC5985231.

Biological target: insulin receptor extracellular domain, short isoform (IR-A)
Assay: SPR

Kd: > 0.122 µM
Substance: insulin (from UniProt P01308 25-54; P01308 90-110) (ligand)
